These are literature values, as cited in article PMC7550652.

Usually Kd stands for a measure of binding affinity in units of concentration.

The series has as its target Calmodulin (Homo sapiens) (UniProt P0DP23).

On to ERα (from UniProt P03372), for which the dissociation constant Kd was 0.16 nM.
